Key:
[1] = target: T1, PDGFRα activation by human PDGF-C (Homo sapiens, UniProt Q9NRA1); assay: PathHunter PDGFRα receptor tyrosine kinase assay in U2OS PDGFRα PLCG1 cells; format: cell-based; details: humanized antibodies; * average of 3 measurements
T1 construct: the growth factor domain of PDGF-C (amino acids 235-345 of human PDGF-C); purchased R&D Systems 1687-CC/CF; host or cells: ligand added to U2OS PDGFRα PLCG1 cells (DiscoveRx, assay 93-0823C3) that express the transfected receptor
Source text: To evaluate the inhibitory activity of anti-human PDGF-C antibodies on PDGFRα activation by human PDGF-C, the PathHunter® receptor tyrosine kinase assay for PDGFRα (93-0823C3) from DiscoveRx® was used. […] A small complementing fragment of β-gal, the Prolink™ tag (PK) has been fused recombinantly to the intracellular C-terminus of the receptor tyrosine kinase PDGFRα. The larger portion of β-gal, termed EA for enzyme acceptor, is co-expressed with an SH2 (Src Homology 2) phosphotyrosine binding domain. Ligand-induced activation of the receptor results in dimerization and intra-cellular cross-phosphorylation of the receptor. Subsequently, the SH2 domain specifically binds the phosphorylated receptor resulting in the complementation of the two β-gal fragments PK and EA, and formation of a functional β-gal enzyme. Following addition of a β-gal substrate, an easily detectable chemiluminescent signal is produced which is directly correlated to receptor activation. The LumiLITE™ microplate reader is fully compatible with all EFC-based assays of DiscoveRx® and is therefore used.
For the PathHunter® PDGFRα, assay, U2OS PDGFRα, PLCG1 (phospholipase Cγ as the source of the SH2 domain) cells from DiscoveRx® were used. Frozen cells were stored in liquid nitrogen. Upon thawing, cells were resuspended in pre-warmed thawing medium (i.e. culture medium without the selection antibiotics Geneticin and Hygromycin B). After 48 hours of culture in a 5% CO2 incubator at 37° C., thawing medium was replaced by culture medium (MEM Eagle 1× (30-2003 from Invitrogen), 10% fetal bovine serum (SH30071.03 from Perbio Science), 1× Penicillin-Streptomycin-Glutamine (10378-016 from Invitrogen), 250 μg/ml Hygromycin B (10687-010 from Invitrogen), 500 μg/ml Geneticin (10131-035 from Invitrogen)). Once confluence was reached, cells were passaged with a ⅓ dilution every 2-3 days using Accutase (L11-007 from PAA). Cells were maintained in a non-confluent state during routine culture.
In the PathHunter® PDGFRα, assay, the U2OS PDGFRα, PLCG1 cells from DiscoveRx® cultured up to 10 passages were used. Cells were seeded at 20.000 cells in 100 μl per well in 96-well white culture-treated microplates with clear bottom (3610 from Corning). The PathHunter® Cell Plating 16 Reagent (93-0563R16 from DiscoveRx®) was employed as seeding medium. Following 24 hours of culture in 5% CO2 at 37° C., 25 μl of a 5-fold concentrated agonist solution in Cell Plating 16 Reagent was used per well to stimulate the cells. Recombinant human PDGF-C from R&D Systems (1687-CC/CF; Va1235-Gly345) was applied as agonist. After 3 hours incubation at room temperature, 60 μl of PathHunter® detection reagent (93-0001 from DiscoveRx®; 1 part Galacton Star® Substrate, 5 parts Emerald II™ Solution, and 19 parts of PathHunter® Cell Assay Buffer) was added. Cells were placed at room temperature and in the dark for another hour before luminescence was measured with the LumiLITE™ microplate reader. With GraphPad Prism® software, a non-linear regression analysis was performed using the obtained luminescent values in order to generate a sigmoidal agonist dose-response curve with variable slope. The EC50 (i.e. half maximal effective concentration) and EC80 value (i.e. the effective concentration that leads to 80% of the maximal response) for human PDGF-C was calculated.
To evaluate the inhibitory activity of anti-human PDGF-C antibodies on PDGFRα, activation by human PDGF-C, equal volumes of […] concentrated solutions of anti-human PDGF-C antibodies and the EC80 of human PDGF-C, prepared in Cell Plating 16 Reagent, were mixed and the assay was performed as described above. As positive controls, an anti-human PDGF-C polyclonal goat IgG antibody (AF1560 from R&D Systems) and recombinant human PDGFRα, Fc chimera (6765-PR from R&D Systems) were employed. […]

PDGF-C = target: T2, PDGF-C (Homo sapiens, UniProt Q9NRA1); assay: Surface Plasmon Resonance affinity of anti-PDGF-C antibodies for PDGF-C (Biacore 3000); format: binding; details: humanized antibodies; as in Example 3
T2 construct: the growth factor domain of PDGF-C (amino acids 235-345 of human PDGF-C); purchased R&D Systems 1687-CC/CF
Description: The different antibodies were each separately coated to a CM5 chip at a density of 1680 RU using standard amine chemistry. Different concentrations (200, 175, 150, 125, 100, 75, 50, 25, 12.5, 6.25, 3.125 & 0 nM) of PDGF-C (R&D Systems, Cat. 1687-CC/CF) were injected over the coated antibody for 5 min, then buffer was flowed for 10 min to monitor the dissociation of the captured antigen. The surface was regeneration between each run with a single injection of glycine-HCl, pH 2.5. Affinities were obtained by analyzing the sensorgrams with the help of the BIAevaluation 4.1 software assuming a 1:1 interaction. The experiment was performed with a Biacore 3000 instrument.
The affinity of the above-listed exemplary humanized anti-PDGF-C antibodies for PDGF-C was analysed (as in Example 3) and the humanized antibodies were subsequently assessed in the in vitro bioassay described in Example 4.

T1 sequence (Q9NRA1 235-345): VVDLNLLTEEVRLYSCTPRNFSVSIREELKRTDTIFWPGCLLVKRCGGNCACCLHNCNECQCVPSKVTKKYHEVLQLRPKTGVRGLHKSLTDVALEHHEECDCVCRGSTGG
T2 sequence (Q9NRA1 235-345): as above

- IC50 [1]: 8.24 nM
- Kd (PDGF-C): 0.7 nM
B1: Humanized mAb 29H1: humanized 29H1; VH SEQ ID NO:106, VL SEQ ID NO:107 (antibody, V domains shown)
VH: EVQLLESGGGLVQPGGSLRLSCAASGFTFSNYGMSWVRQTPGKGLEWVATIGSGGHYTYYPDSVKGRFTISRDNAKNTLYLQMNSLRAEDTAVYYCARQAPLWDCSDYWGQGTLLTVSS
VL: DVVMTQSPLSLPVTLGQPASISCRSSQTIVHSDGTTYLEWYLQKPGQSPRLLIYKVSNRFSGVPDRFSGSGSGTDFTLKISRVEAEDVGVYYCFQGSHVPPTFGQGTKLEIK
modifications: humanized variable heavy chain murine monoclonal antibody 29 H1; humanized variable light chain murine monoclonal antibody 29 H1
